The text below walks through data of article PMC2148453.

pKd: −log10 of the molar value.

By pKd is commonly meant −log10 of the Kd, conventionally taken in molar units. The low end stands for a high Kd, the high end for a low Kd.

Experiment [1] concerns the target microtubules (taxol-stabilised, polymerised from PC-tubulin; tubulin alpha-beta heterodimer) (UniProt P02550). In words: cryo-EM structure.
For experiment [2] the target is unchanged. Put plainly: co-sedimentation.

Sequence of UniProt P02550 (P02550 whole entry, looked up, one chain of several): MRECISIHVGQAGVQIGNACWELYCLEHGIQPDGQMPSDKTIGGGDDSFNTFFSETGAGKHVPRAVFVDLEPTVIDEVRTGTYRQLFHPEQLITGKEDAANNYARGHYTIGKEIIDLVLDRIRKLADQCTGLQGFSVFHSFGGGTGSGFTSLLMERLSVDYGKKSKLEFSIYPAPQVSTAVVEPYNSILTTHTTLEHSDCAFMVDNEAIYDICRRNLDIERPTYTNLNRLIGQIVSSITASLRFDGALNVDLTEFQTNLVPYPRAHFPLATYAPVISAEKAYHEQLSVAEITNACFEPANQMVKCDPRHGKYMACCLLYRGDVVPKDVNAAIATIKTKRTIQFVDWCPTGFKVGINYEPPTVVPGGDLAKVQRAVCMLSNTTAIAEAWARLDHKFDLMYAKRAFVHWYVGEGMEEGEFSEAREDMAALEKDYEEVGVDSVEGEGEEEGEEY

Take “rat kinesin construct rK354 (from UniProt P56536 1-354) (domain or fragment)”: the stoichiometry N (kinesin head per tubulin heterodimer) in experiment [1] stood at 1.

In experiment [1], “rat kinesin construct rK379 (from UniProt P56536 1-379) (domain or fragment)” yielded a stoichiometry N (head per tubulin dimer) of 1 and a stoichiometry N (head per tubulin heterodimer) of 1. In experiment [2], this substance showed a pKd of 6.40 and a stoichiometry N (kinesin heads per tubulin dimer) of 1.1.
